Measurements as given in patent publication US20160264649A1.

What was measured:
Test in all cases: cell-based or functional assay
[1] = target: HIV-1 Env of isolate NL43 (HIV-1)
[2] = target: HIV-1 Env of isolate MGRM-Chronic-B-024 (HIV-1)
[3] = target: HIV-1 Env of isolate APV_6 (HIV-1)
[4] = target: HIV-1 Env of isolate MGRM-Chronic-B-001 (HIV-1)
[5] = target: HIV-1 Env of isolate MG RM-C-022 (HIV-1)
[6] = target: HIV-1 Env of isolate SC422661.8 (HIV-1)
[7] = target: HIV-1 Env of isolate 93TH305 (HIV-1)
[8] = target: HIV-1 Env of isolate MG RM-C-025 (HIV-1)
[9] = target: HIV-1 Env of isolate MGRM-Chronic-B-010 (HIV-1)
[10] = target: HIV-1 Env of isolate MGRM-Chronic-B-011 (HIV-1)
[11] = target: HIV-1 Env of isolate MGRM-Chronic-B-020 (HIV-1)
[12] = target: HIV-1 Env of isolate MGRM-Chronic-B-018 (HIV-1)
[13] = target: HIV-1 Env of isolate MG RM-C-020 (HIV-1)
[14] = target: HIV-1 Env of isolate MGRM-Chronic-B-004 (HIV-1)
[15] = target: HIV-1 Env of isolate VLGCB3 (HIV-1)
[16] = target: HIV-1 Env of isolate MGRM-Chronic-B-017 (HIV-1)
[17] = target: HIV-1 Env of isolate MGRM-Chronic-B-008 (HIV-1)
[18] = target: HIV-1 Env of isolate MG RM-C-026 (HIV-1)
[19] = target: HIV-1 Env of isolate JRFL (HIV-1)
[20] = target: HIV-1 Env of isolate THR0.18 (HIV-1)
[21] = target: HIV-1 Env of isolate MGRM-Chronic-B-002 (HIV-1)
[22] = target: HIV-1 Env of isolate APV_13 (HIV-1)
[23] = target: HIV-1 Env of isolate MGRM-Chronic-B-003 (HIV-1)
[24] = target: HIV-1 Env of isolate MG RM-C-028 (HIV-1)
[25] = target: HIV-1 Env of isolate MG RM-C-023 (HIV-1)
[26] = target: HIV-1 Env of isolate 92 BR 020 (HIV-1)
[27] = target: HIV-1 Env of isolate 6535.3 (HIV-1)
[28] = target: HIV-1 Env of isolate TRJ04551.58 (HIV-1)
[29] = target: HIV-1 Env of isolate MG RM-C-027 (HIV-1)
[30] = target: HIV-1 Env of isolate MGRM-Chronic-B-012 (HIV-1)
[31] = target: HIV-1 Env of isolate 93MW959 (HIV-1)
[32] = target: HIV-1 Env of isolate 97ZA012 (HIV-1)
[33] = target: HIV-1 Env of isolate MGRM-Chronic-B-023 (HIV-1)
[34] = target: HIV-1 Env of isolate 93IN905 (HIV-1)
[35] = target: HIV-1 Env of isolate APV_17 (HIV-1)
[36] = target: HIV-1 Env of isolate PVO.4 (HIV-1)
[37] = target: HIV-1 Env of isolate QH0692.42 (HIV-1)
[38] = target: HIV-1 Env of isolate CAAN.A2 (HIV-1)
[39] = target: HIV-1 Env of isolate SF162 (HIV-1) (UniProt P19550)
[40] = target: HIV-1 Env of isolate TRO.11 (HIV-1)
[41] = target: HIV-1 Env of isolate 98IN022 (HIV-1)
[42] = target: HIV-1 Env of isolate JRCSF (HIV-1) (UniProt P20871)
[43] = target: HIV-1 Env of isolate MG RM-C-024 (HIV-1)

PGT-125 monoclonal antibody (5123_A06)
neutralization IC50 [1]: > 50 µg/mL | neutralization IC50 [2]: > 50 µg/mL | neutralization IC50 [3]: 0.021 µg/mL | neutralization IC50 [4]: > 50 µg/mL | neutralization IC50 [5]: 1.23 µg/mL | neutralization IC50 [6]: 30.1 µg/mL | neutralization IC50 [7]: 0.008 µg/mL | neutralization IC50 [8]: 42.5 µg/mL | neutralization IC50 [9]: 0.006 µg/mL | neutralization IC50 [10]: 3.23 µg/mL | neutralization IC50 [11]: 0.087 µg/mL | neutralization IC50 [12]: > 50 µg/mL | neutralization IC50 [13]: > 50 µg/mL | neutralization IC50 [14]: 0.007 µg/mL | neutralization IC50 [15]: 0.015 µg/mL | neutralization IC50 [16]: > 50 µg/mL | neutralization IC50 [17]: > 50 µg/mL | neutralization IC50 [18]: 0.005 µg/mL | neutralization IC50 [19]: 0.009 µg/mL | neutralization IC50 [20]: > 50 µg/mL | neutralization IC50 [21]: 0.064 µg/mL | neutralization IC50 [22]: 0.007 µg/mL | neutralization IC50 [23]: 0.157 µg/mL | neutralization IC50 [24]: 14 µg/mL | neutralization IC50 [25]: 1.31 µg/mL | neutralization IC50 [26]: 0.016 µg/mL | neutralization IC50 [27]: 0.01 µg/mL | neutralization IC50 [28]: 0.019 µg/mL | neutralization IC50 [29]: > 50 µg/mL | neutralization IC50 [30]: 0.036 µg/mL | neutralization IC50 [31]: 37.5 µg/mL | neutralization IC50 [32]: 2.46 µg/mL | neutralization IC50 [33]: > 50 µg/mL | neutralization IC50 [34]: 0.009 µg/mL | neutralization IC50 [35]: 8.06 µg/mL | neutralization IC50 [36]: 0.042 µg/mL | neutralization IC50 [37]: 0.048 µg/mL | neutralization IC50 [38]: 5.47 µg/mL | neutralization IC50 [39]: 0.004 µg/mL | neutralization IC50 [40]: 0.111 µg/mL | neutralization IC50 [41]: 22.1 µg/mL | neutralization IC50 [42]: 0.004 µg/mL | neutralization IC50 [43]: > 50 µg/mL

PGT-123 monoclonal antibody (4858_P08)
neutralization IC50 [1]: > 50 µg/mL | neutralization IC50 [2]: > 50 µg/mL | neutralization IC50 [3]: 0.023 µg/mL | neutralization IC50 [4]: 0.15 µg/mL | neutralization IC50 [5]: 0.01 µg/mL | neutralization IC50 [6]: 0.039 µg/mL | neutralization IC50 [7]: 0.008 µg/mL | neutralization IC50 [8]: 13.3 µg/mL | neutralization IC50 [9]: 0.009 µg/mL | neutralization IC50 [10]: > 50 µg/mL | neutralization IC50 [11]: 0.005 µg/mL | neutralization IC50 [12]: > 50 µg/mL | neutralization IC50 [13]: > 50 µg/mL | neutralization IC50 [14]: 0.008 µg/mL | neutralization IC50 [15]: 0.004 µg/mL | neutralization IC50 [16]: > 50 µg/mL | neutralization IC50 [17]: 0.01 µg/mL | neutralization IC50 [18]: 0.001 µg/mL | neutralization IC50 [19]: 0.014 µg/mL | neutralization IC50 [20]: > 50 µg/mL | neutralization IC50 [21]: 0.234 µg/mL | neutralization IC50 [22]: 0.138 µg/mL | neutralization IC50 [23]: 0.008 µg/mL | neutralization IC50 [24]: 0.402 µg/mL | neutralization IC50 [25]: 0.011 µg/mL | neutralization IC50 [26]: 0.008 µg/mL | neutralization IC50 [27]: 0.004 µg/mL | neutralization IC50 [28]: 16.9 µg/mL | neutralization IC50 [29]: 0.02 µg/mL | neutralization IC50 [30]: 0.227 µg/mL | neutralization IC50 [31]: 0.011 µg/mL | neutralization IC50 [32]: 0.002 µg/mL | neutralization IC50 [33]: 0.055 µg/mL | neutralization IC50 [34]: 0.004 µg/mL | neutralization IC50 [35]: 0.114 µg/mL | neutralization IC50 [36]: 0.105 µg/mL | neutralization IC50 [37]: 0.158 µg/mL | neutralization IC50 [38]: 0.015 µg/mL | neutralization IC50 [39]: 0.005 µg/mL | neutralization IC50 [40]: 0.008 µg/mL | neutralization IC50 [41]: 0.011 µg/mL | neutralization IC50 [42]: 0.046 µg/mL | neutralization IC50 [43]: 0.195 µg/mL

PGT-122 monoclonal antibody (4877_D15)
neutralization IC50 [1]: > 50 µg/mL | neutralization IC50 [2]: 2.31 µg/mL | neutralization IC50 [3]: 0.019 µg/mL | neutralization IC50 [4]: 0.138 µg/mL | neutralization IC50 [5]: 0.012 µg/mL | neutralization IC50 [6]: 0.103 µg/mL | neutralization IC50 [7]: 0.013 µg/mL | neutralization IC50 [8]: 8.69 µg/mL | neutralization IC50 [9]: 0.018 µg/mL | neutralization IC50 [10]: > 50 µg/mL | neutralization IC50 [11]: 0.005 µg/mL | neutralization IC50 [12]: > 50 µg/mL | neutralization IC50 [13]: 14 µg/mL | neutralization IC50 [14]: 0.008 µg/mL | neutralization IC50 [15]: 0.008 µg/mL | neutralization IC50 [16]: 5.66 µg/mL | neutralization IC50 [17]: 0.017 µg/mL | neutralization IC50 [18]: 0.006 µg/mL | neutralization IC50 [19]: 0.026 µg/mL | neutralization IC50 [20]: > 50 µg/mL | neutralization IC50 [21]: 1.8 µg/mL | neutralization IC50 [22]: 0.778 µg/mL | neutralization IC50 [23]: 0.008 µg/mL | neutralization IC50 [24]: 2.22 µg/mL | neutralization IC50 [25]: 0.027 µg/mL | neutralization IC50 [26]: 0.021 µg/mL | neutralization IC50 [27]: 0.006 µg/mL | neutralization IC50 [28]: > 50 µg/mL | neutralization IC50 [29]: 0.039 µg/mL | neutralization IC50 [30]: 0.066 µg/mL | neutralization IC50 [31]: 0.016 µg/mL | neutralization IC50 [32]: 0.004 µg/mL | neutralization IC50 [33]: 0.01 µg/mL | neutralization IC50 [34]: 0.013 µg/mL | neutralization IC50 [35]: 0.25 µg/mL | neutralization IC50 [36]: 0.689 µg/mL | neutralization IC50 [37]: 0.493 µg/mL | neutralization IC50 [38]: 0.011 µg/mL | neutralization IC50 [39]: 0.009 µg/mL | neutralization IC50 [40]: 0.011 µg/mL | neutralization IC50 [41]: 0.032 µg/mL | neutralization IC50 [42]: 0.057 µg/mL | neutralization IC50 [43]: 0.102 µg/mL
